# Assay results taken from patent US12226490B2, “Anti-ROR1 antibody conjugates, compositions comprising anti ROR1 antibody conjugates, and methods of making and using anti-ROR1 antibody conjugates preliminary class” (Sutro Biopharma, Inc., priority 2022, dated 2025).
# Assays:
# human ROR1-Fz = molecular target: T1, human ROR1-Fz (Homo sapiens, UniProt Q01973); test: Biacore off-rate and kinetic analysis, ROR1 frizzled domain; assay type: binding; details: Table 11 (SP34 light chain)
# T1 construct: Frizzled (Fz, residues 165-305); HIS6 (C); purchased Acro Biosystems; host or cells: HEK293
# Description: Anti-Fc polyclonal antibodies were immobilized onto a CM5 chip (GE Life Sciences) using amine coupling chemistry (from Amine Coupling Kit, GE Life Sciences). The immobilization steps were carried out at a flow rate of 25 μL/min in 1×HBS-EP+ buffer (GE Life Sciences; 10× Stock diluted before use). The sensor surfaces were activated for 7 min with a mixture of NHS (0.05 M) and EDC (0.2 M). The Anti-Fc antibodies were injected over all 4 flow cells at a concentration of 25 ug/ml in 10 mM sodium acetate, pH 4.5, for 7 min. Ethanolamine (1 M, pH 8.5) was injected for 7 min to block any remaining activated groups. An average of 12,000 response units (RU) of capture antibody was immobilized on each flow cell.
# Off-rate and kinetic binding experiments were performed at 25° C. using 1×HBS-EP+ buffer. Test and control antibodies were injected over the anti-Fc surface at concentrations of 5-10 μg/mL for 12 seconds at a flow rate of 10 μL/min on flow cells 2, 3 and 4, followed by a buffer wash for 30 seconds at the same flow rate. Kinetic characterization of antibody samples was carried out with a range of antigen concentrations from 1-100 nM and 1 injection of 0 nM antigen (for example, 100, 50, 25, 6.25, 1.56 and 0 nM). After capturing ligand (antibody) on the anti-Fc surface, the analyte (hROR1, Fz or Kr domains, Acro Biosystems, Delaware) was bound for 180 seconds, followed by a 600 second dissociation phase at a flow rate of 50 μL/min. Between each ligand capture and analyte binding cycle, regeneration was carried out using 2 injections of 10 mM Glycine pH 2.0 for 30 seconds at 30 μL/min, followed by a 30 second buffer wash step.
# The data was fit with the Biacore T200 Evaluation software, using a 1-1 Langmuir binding model. KD (affinity, nM) was determined as a ratio of the kinetic rate constants calculated from the fits of the association and dissociation phases.
# For anti-CD3-LC-containing IgGs that had detectable ROR1-binding in ELISA (1944-A07 and 1987-C05 variants), those antibodies were further tested for binding by surface plasmon resonance (SPR). Binding kinetics were assessed to the ROR1-frizzled domain (hROR1-Fz) or the ROR1-extracellular domain (hROR1) for 1944-A07 and 1987-C05 variants, respectively. Briefly, anti-ROR1 antibodies were captured via anti-human Fc polyclonal antibodies immobilized to a CM5 chip, and ROR1 recombinant proteins were flowed across the surface to assess binding kinetics. hROR1 or hROR1-Fz domain (Acro Biosystems, Delaware) binding was tested at 100, 50, 25, 6.25, 1.5625 nM. The data was fit with the Biacore™ T200 Evaluation software, using a 1-1 Langmuir binding model. KD (affinity, nM) was determined as a ratio of the kinetic rate constants calculated from the fits of the association and dissociation phases.
# [1] = Differential scanning fluorimetry (protein thermal shift; TM1 Fc, TM2 Fab); assay type: physicochemical; details: melting temperature of the Fab domain; Table 11
# Description: A protein thermal shift assay was carried out by mixing the protein to be assayed with an environmentally sensitive dye (SYPRO Orange, Life Technologies Cat #S-6650) in a phosphate buffered solution (PBS), and monitoring the fluorescence of the mixture in real time as it underwent controlled thermal denaturation. Protein solutions between 0.2-2 mg/mL were mixed at a 1-1 volumetric ratio with a 1-500 PBS-diluted solution of SYPRO Orange (SYPRO Orange stock dye is 5000× in DMSO). 10 μL aliquots of the protein-dye mixture were dispensed in quadruplicate in a 384-well microplate (Bio-Rad Cat #MSP-3852), and the plate was sealed with an optically clear sealing film (Bio-Rad Cat #MSB-1001) and placed in a 384-well plate real-time thermocycler (Bio-Rad CFX384 Real Time System). The protein-dye mixture was heated from 25° C. to 95° C., at increments of 0.1° C. per cycle (˜1.5° C. per minute), allowing 3 seconds of equilibration at each temperature before taking a fluorescence measurement. At the end of the experiment, the transition melting temperatures (TM1 and TM2) were determined using the Bio-Rad CFX manager software. TM1 represents the melting temperature of the Fc domain. TM2 represents the melting temperature of the Fab domain.
# For the thermal stability of an antibody, the first melting peak (Tm1) coincides with the unfolding of the CH2 domain (FC stability), while the second melting peak (Tm2) occurs upon unfolding of the Fab domain.
# T1 sequence (Q01973 165-305): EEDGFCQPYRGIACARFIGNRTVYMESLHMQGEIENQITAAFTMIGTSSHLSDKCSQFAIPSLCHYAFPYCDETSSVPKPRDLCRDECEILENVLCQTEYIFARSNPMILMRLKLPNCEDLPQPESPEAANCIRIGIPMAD
Biacore human ROR1-Fz ka (human ROR1-Fz) [M⁻¹ s⁻¹],Biacore human ROR1-Fz kd (human ROR1-Fz) [s⁻¹],Molecule,TM2 [1] [°C]
150000,0.000568,"SRP2196-A09 (antibody, V domains shown) VH: EVQLVESGGGLVQPGGSLRLSCAASGFNITGYYIHWVRQAPGKGLEWVGQISPNSGATHYADSVKGRFTISADTSKNTAYLQMNSLRAEDTAVYYCARDSRRYIRSWDYWGQGTLVTVSS VL: QAVVTQESALTTSPGETVTLTCRSSTGAVTTSNYANWVQEKPDHLFTGLIGGTNKRAPGVPARFSGSLIGDKAALTITGAQTEDEAIYFCALWYSNLWVFGGGTKLTVL",75
137000,0.000597,"SRP2196-B11 (antibody, V domains shown) VH: EVQLVESGGGLVQPGGSLRLSCAASGFNITGYYIHWVRQAPGRGLEWVGQISPNSGYTYYADSVKGRFTISADTSKNTAYLQMNSLRAEDTAVYYCARDSRRYIRSWDYWGQGTLVTVSS VL: QAVVTQESALTTSPGETVTLTCRSSTGAVTTSNYANWVQEKPDHLFTGLIGGTNKRAPGVPARFSGSLIGDKAALTITGAQTEDEAIYFCALWYSNLWVFGGGTKLTVL",74
172000,0.000479,"SRP2196-A10 (antibody, V domains shown) VH: EVQLVESGGGLVQPGGSLRLSCAASGFNITGYYIHWVRQAPGKGLEWVGYISPNSGATHYADSVKGRFTISADISKNTAYLQMNSLRAEDTAVHYCARDSRRYVRSWDYWGQGTLVTVSS VL: QAVVTQESALTTSPGETVTLTCRSSTGAVTTSNYANWVQEKPDHLFTGLIGGTNKRAPGVPARFSGSLIGDKAALTITGAQTEDEAIYFCALWYSNLWVFGGGTKLTVL",68
156000,0.000488,"SRP2196-B08 (antibody, V domains shown) VH: EVQLVESGGGLVQPGGSLRLSCAASGFNITGYYIHWVRQAPGKGLEWVGQISPNSGYTYLADSVKGRFTISADTSKNTAYLQMNSLRAEDTAVYYCARDSRRYVRGWDYWGQGTLVTVSS VL: QAVVTQESALTTSPGETVTLTCRSSTGAVTTSNYANWVQEKPDHLFTGLIGGTNKRAPGVPARFSGSLIGDKAALTITGAQTEDEAIYFCALWYSNLWVFGGGTKLTVL",75
191000,0.000792,"SRP2196-A11 (antibody, V domains shown) VH: EVQLVESGGGLVQPGGSLRLSCAASGFNITGYYIHWVRQAPGKGLEWVGQISPNSGTTYDADSVKGRFTISADTSKNTAYLQMNSLRAEDTAVYYCARDSRRYVRGWDYWGQGTLVTVSS VL: QAVVTQESALTTSPGETVTLTCRSSTGAVTTSNYANWVQEKPDHLFTGLIGGTNKRAPGVPARFSGSLIGDKAALTITGAQTEDEAIYFCALWYSNLWVFGGGTKLTVL",73
128000,0.000334,"SRP2196-B10 (antibody, V domains shown) VH: EVQLVESGGGLVQPGGSLRLSCAASGFNITGYYIHWVRQAPGKGLEWVGSITPLSGATSKADSVKGRFTISADTSKNTAYLQMNSLRAEDTAVYYCARDSRRYIRSWDYWGQGTLVTVSS VL: QAVVTQESALTTSPGETVTLTCRSSTGAVTTSNYANWVQEKPDHLFTGLIGGTNKRAPGVPARFSGSLIGDKAALTITGAQTEDEAIYFCALWYSNLWVFGGGTKLTVL",70
130000,0.000427,"SRP2196-B09 (antibody, V domains shown) VH: EVQLVESGGGLVQPEGSLRLSCAASGFNITEYYIHWVRQAPGKGLEWVGYISPNSGSTYYADSVKGRFTISADTSKNTAYLQMNSLRAEDTAVYYCARDSRRYVRSWDYWGQGTLVTVSS VL: QAVVTQESALTTSPGETVTLTCRSSTGAVTTSNYANWVQEKPDHLFTGLIGGTNKRAPGVPARFSGSLIGDKAALTITGAQTEDEAIYFCALWYSNLWVFGGGTKLTVL",72
131000,0.000401,"SRP2196-B01 (antibody, V domains shown) VH: EVQLVESGGGLVQPGGSLRLSCAASGFNITGYYIHWVRQAPGKGLEWVGQISPNSGYTYYADSVKGRFTISADTSKNTTYLQMNSLRAEDTAVYYCARDSRRYVRSWDYWGQGTLVTVSS VL: QAVVTQESALTTSPGETVTLTCRSSTGAVTTSNYANWVQEKPDHLFTGLIGGTNKRAPGVPARFSGSLIGDKAALTITGAQTEDEAIYFCALWYSNLWVFGGGTKLTVL",75
163000,0.000227,"SRP2196-B02 (antibody, V domains shown) VH: EVQLVESGGGLVQPGGSLRLSCAASGFNITQYYIHWVRQAPGKGLEWVGYISPNSGQTYDADSVKGRFTISADTSKNTAYLQMNSLRAEDTAVYYCARDSRRYVRSWDYWGQGTLVTVSS VL: QAVVTQESALTTSPGETVTLTCRSSTGAVTTSNYANWVQEKPDHLFTGLIGGTNKRAPGVPARFSGSLIGDKAALTITGAQTEDEAIYFCALWYSNLWVFGGGTKLTVL",69
127000,0.000352,"SRP2196-B04 (antibody, V domains shown) VH: EVQLVESGGGLVQPGGSLRLSCAASGFNITEYYIHWVRQAPGKGLEWVGYISPNSGATYQADSVKGRFTISADTSKNTAYLQMNSLRAEDTAVYYCARDSRRYVRGWDYWGQGTLVTVSS VL: QAVVTQESALTTSPGETVTLTCRSSTGAVTTSNYANWVQEKPDHLFTGLIGGTNKRAPGVPARFSGSLIGDKAALTITGAQTEDEAIYFCALWYSNLWVFGGGTKLTVL",72
142000,0.000423,"SRP2196-B06 (antibody, V domains shown) VH: EVQLVESGGGLVQPGGSLRLSCAASGFNITGYYIHWVRQAPGKGLEWVGQISPNSGSTYSADSVKGRFTISADTSKNTAYLQMNSLRAEDTAVYYCARDSRRYVLSWDYWGQGTLVTVSS VL: QAVVTQESALTTSPGETVTLTCRSSTGAVTTSNYANWVQEKPDHLFTGLIGGTNKRAPGVPARFSGSLIGDKAALTITGAQTEDEAIYFCALWYSNLWVFGGGTKLTVL",70
124000,0.000945,"SRP2196-B03 (antibody, V domains shown) VH: EVQLVESGGGLAQPGGSLRLSCAASGFNITGYYIHWVRQAPGKGLEWVGYISPNSGATHYADSVKGRFTISADTSKNTAYLQMNSLRAEDTAVYYCARDSRRYVRPFDYWGQGTLVTVSS VL: QAVVTQESALTTSPGETVTLTCRSSTGAVTTSNYANWVQEKPDHLFTGLIGGTNKRAPGVPARFSGSLIGDKAALTITGAQTEDEAIYFCALWYSNLWVFGGGTKLTVL",71
